T1: Aβ17-40 peptide, biotinylated (Anaspec) (biotinylated (position not given))
T1 peptide: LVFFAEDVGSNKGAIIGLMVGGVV


What was measured:
Aβ1-42 peptide = assay: cell-based or functional assay
[1] = target: T2, Biotinylated complete Aβ1-42 peptide (human sequence, Bachem) (human, biotinylated (position not given)); assay: ELISA, biotin-peptide on streptavidin, Ab 10 µg/ml; mean of 2, background subtracted
T2 construct: also called 1-42B; Aβ1-42 (positive control of the peptide library ELISA)
Source text: (§1) The peptides in the peptide library were composed of 8, 9 or 10-mer aa peptides. A biotinylated complete Aβ₁₋₄₂ peptide (human sequence) was used as positive control (Bachem, Bubendorf, Switzerland). In addition, longer peptides covering Aβ1-28, Aβ17-40, Aβ1-40 and Aβ₁₋₄₂ were used to define the broader region to which these antibodies may bind. These 4 peptides were also biotinlyated (manufactured by Anaspec and purchased from ANAWA Trading SA, Switzerland). Epitope mapping was done according to the manufacturer's (Mimotopes) instructions. Briefly, Streptavidin coated plates (NUNC, Roskilde, Denmark) were blocked with 0.1% BSA in PBS overnight at 4° C. After washing with PBS-0.05% Tween 20, plates were coated for 1 hour at RT with the different peptides from the library, diluted in 0.1% BSA, 0.1% Sodium Azide in PBS to a final concentration of 10 μM. […] Plates were washed again and incubated with alkaline phosphatase conjugated goat anti mouse IgG (Jackson Immunresearch West Grove, Pa., USA) for 1 h at RT. After final washing, plates were incubated with phosphatase substrate (pNPP, Sigma-Aldrich, St Louis, Mo., USA) and read after 3 hours of incubation at 405 nm using an ELISA plate reader.

[2] = target: T3, Aβ1-42 peptide, biotinylated (Anaspec) (biotinylated (position not given)); assay: as above
T3 construct: also called 1-42A
T3 sequence (peptide, as listed by the source): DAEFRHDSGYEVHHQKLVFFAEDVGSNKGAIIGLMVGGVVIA
Source text: as §1

[3] = target: T4, Aβ1-40 peptide, biotinylated (Anaspec) (biotinylated (position not given)); assay: as above
T4 construct: also called Ab1-40
Source text: as §1

[4] = target: T1, Aβ17-40 peptide, biotinylated (Anaspec); assay: as above
Source text: as §1

[5] = target: T1, Aβ17-40 peptide, biotinylated (Anaspec); assay: ELISA on longer biotinylated Aβ peptides
Source text: as §1

[6] = target: T2, Biotinylated complete Aβ1-42 peptide …; assay: peptide library ELISA, positive control, Ab 10 µg/ml
Source text: as §1

T2 sequence (peptide, as listed by the source): as above
Sequence of Aβ1-42 peptide (peptide, as listed by the source): as above

disaggregation of pre-aggregated Aβ1-42, thioflavin T assay, molar ratio 1:10 (Aβ1-42 peptide) [%] | disaggregation of pre-aggregated Aβ1-42, thioflavin T assay, molar ratio 1:100 (Aβ1-42 peptide) [%] | inhibition of Aβ1-42 aggregation, thioflavin T assay, molar ratio 1:10 (Aβ1-42 peptide) [%] | inhibition of Aβ1-42 aggregation, thioflavin T assay, molar ratio 1:100 (Aβ1-42 peptide) [%] | O.D. [1] [O.D.] | O.D. [2] [O.D.] | O.D. [3] [O.D.] | O.D. [4] [O.D.] | binding result [5] | O.D. [6] [O.D.] | Binder
52 | 22 | 69 | 34 | 1.54 | 0.78 | 1.02 | 0.02 | no binding (tested: 10 µg/ml) | – | ACI-11-Ab-9 monoclonal antibody (antibody, V domains shown, Mouse monoclonal IgG from hybridoma FG1F9E4 (DSM ACC2845); also called clone FG1F9E4) VH: QVQLQQSDAELVKPGASVKISCKVSGYTFTDHTIHWMKQRPEQGLEWIGYIYPRDGSTKYNEKFKGKATLTADKSSSTAYMQLNSLTSEDSAVYFCARDYGYAFDYWGQGTTLTVSS VL: QAVVTQESALTTSPGGTVILTCRSSTGAVTTSNYANWVQEKPDHLFTGLIGGTSNRAPGVPVRFSGSLIGDKAALTITGAQTEDDAMYFCALWYSTHYVFGGGTKVTVL
54 | 18 | 66 | 30 | 1.07 | 0.44 | 0.62 | -0.02 | – | 0.69 | ACI-12-Ab-11 monoclonal antibody (antibody, V domains shown, Mouse monoclonal IgG from hybridoma FK2A6A6 (DSM ACC2846); also called ACI-12-Ab-11 (clone: FK2A6A6); clone FK2A6A6) VH: QVQLQQSDAELVKPGASVKISCKVSGYTFTDHTIHWMKQRPEQGLEWIGYIYPRDGSTKYNEKFKGKATLTADKSSSTAYMQLNSLTSEDSAVYFCARDYGYAFDYWGQGTTLTVSS VL: QAVVTQESALTTSPGGTVILTCRSSTGAVTTSNYANWVQEKPDHLFTGLIGGTSNRAPGVPVRFSGSLIGDKAALTITGAQTEDDAMYFCALWYSTHYVFGGGTKVTVL

Reference: US20100291097A1 (AC IMMUNE S A, published 2010)
